*: point of attachment. AMC = Cc1cc(=O)oc2cc(N*)ccc12; Boc = CC(C)(C)OC(=O)*
Columns and labels:
metacaspase 3 = target: T1, metacaspase 3 (Arabidopsis thaliana, UniProt Q9FMG1); test: Cleavage of fluorescent artificial substrates by purified metacaspase 3; assay type: biochemical; conditions: assay buffers of pHs ranging from 4.5 to 9.0 (MES 50 mM)
T1 construct: made in house; host or cells: bacterial production, pDEST17 (E. coli by the general method)
T1 sequence (Q9FMG1 1-362 R151K/L157V/V158I/Q177E): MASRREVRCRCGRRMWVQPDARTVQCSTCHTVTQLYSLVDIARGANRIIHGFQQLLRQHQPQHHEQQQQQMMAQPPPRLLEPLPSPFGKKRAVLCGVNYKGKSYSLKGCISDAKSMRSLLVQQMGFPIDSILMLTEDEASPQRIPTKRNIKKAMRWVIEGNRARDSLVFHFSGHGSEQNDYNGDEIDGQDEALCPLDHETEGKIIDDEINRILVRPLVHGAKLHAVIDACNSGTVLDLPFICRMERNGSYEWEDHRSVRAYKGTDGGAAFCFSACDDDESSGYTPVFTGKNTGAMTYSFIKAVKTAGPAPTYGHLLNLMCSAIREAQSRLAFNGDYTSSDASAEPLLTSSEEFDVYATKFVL
From the text: (§1) For generation of the prodomain deletion mutant of Arabidopsis thaliana metacaspase 3 (MC3ΔN), residues 1 to 91 were replaced by a methionine residue by PCR, using 5′-[…]-3′ (SEQ ID NO:43) as the forward primer and 5′-[…]-3′ (SEQ ID NO:17) as the reverse primer. 5′ extensions used for Gateway™ (Invitrogen) cloning were 5′-[…]-3′ (SEQ ID NO:44) for forward primers and 5′-[…]-3′ (SEQ ID NO:45) for reverse primers. For bacterial production, the cDNA's were cloned into the bacterial expression vector pDEST17™ (Invitrogen), resulting in the amino-terminal translational addition of the following HIS6 tag-containing sequence: […] (SEQ ID NO:37).
(§2) Activity of purified metacaspase 3 was tested with different fluorescent substrates in assay buffers of pHs ranging from 4.5 to 9.0 (MES 50 mM). The substrates tested were: Ac-DEVD-AMC, Z-VAD-AMC, Boc-GRR-AMC, Boc-GKR-AMC, Z-FR-AMC and H-AFK-AMC. Only Z-FR-AMC was cut by metacaspase 3.

Atmc9 = target: T2, Atmc9 (Arabidopsis thaliana, UniProt Q9FYE1); test: kcat/Km of artificial substrates of Atmc9; assay type: biochemical; conditions: summary of Table 1
T2 construct: it indeed consists of amino acids 184 to 325 (calculated mass 15427 Da); made in house; host or cells: E. coli BL21(DE3), pDEST17, Ni-NTA purified
T2 sequence (Q9FYE1 1-183 limits assumed): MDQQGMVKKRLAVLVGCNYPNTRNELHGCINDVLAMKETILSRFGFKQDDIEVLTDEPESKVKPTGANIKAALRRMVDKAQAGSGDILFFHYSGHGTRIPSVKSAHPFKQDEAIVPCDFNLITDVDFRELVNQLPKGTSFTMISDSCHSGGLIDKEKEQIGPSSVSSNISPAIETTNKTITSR
T2 sequence (Q9FYE1 184-325 limits assumed): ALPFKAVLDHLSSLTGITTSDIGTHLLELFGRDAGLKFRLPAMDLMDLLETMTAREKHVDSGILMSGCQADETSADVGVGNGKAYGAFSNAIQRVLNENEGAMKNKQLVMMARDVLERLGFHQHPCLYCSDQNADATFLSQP
Method: The activity assay buffer used was composed of 50 mM MES pH 5.3, 10% (w/v) sucrose, 0.1% (w/v) 3-[(3-cholamidopropyl)dimethylammonio]-1-propanesulfonate [CHAPS], 10 mM DTT.
Release of free AMC was determined in a time course using a FLUOstar Optima fluorescence plate reader (BMB Lab Technologies, Offenburg, Del.). After total hydrolysis of the substrates, kcatlKm was calculated using the following formula: kcat/Km=kobsIEt, where kobs is determined as the decrease per second of the natural logarithm of substrate left, and Et is the concentration of enzyme active sites in the reaction.

[1] = target: T3, t-butyloxycarbonyl-Gly-Lys-Arg-7-amido-4-methylcoumarin
T3 chain: GKR

Z-DEVD-cmk = target: T4, Z-DEVD-cmk
T4 chain: DEVD

[2] = target: T5, benzyloxycarbonyl-Phe-Arg-AMC
T5 chain: FR

Z-VAD-fmk = target: T6, Z-VAD-fmk
T6 chain: VAD

[3] = target: T7, Soybean trypsin inhibitor, P01070
T7 chain: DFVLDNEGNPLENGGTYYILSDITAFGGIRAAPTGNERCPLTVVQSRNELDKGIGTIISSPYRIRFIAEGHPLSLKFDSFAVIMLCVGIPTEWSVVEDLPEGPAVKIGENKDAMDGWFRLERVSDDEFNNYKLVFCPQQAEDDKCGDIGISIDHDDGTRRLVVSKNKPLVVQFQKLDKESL

[4] = target: T8, t-butyloxycarbonyl-Gly-Arg-Arg-7-amido-4-methylcoumarin
T8 chain: GRR

[5] = target: T9, H-Ala-Phe-Lys-7-amido-4-methylcoumarin
T9 chain: AFK

Z-YVAD-cmk = target: T10, Z-YVAD-cmk
T10 chain: YVAD

[6] = target: T11, Z-FK-2,4,6-trimethylbenzoyloxymethyl ketone
T11 chain: FK

[7] = target: T12, acetyl-Asp-Glu-Val-Asp-aminomethylcoumarin
T12 chain: DEVD

[8] = target: T13, benzyloxycarbonyl-Val-Ala-Asp-aminomethylcoumarin
T13 chain: VAD

[9] = Activity of full length metacaspase 3 and prodomain deletion mutants in function of the pH, Z-FR-AMC as substrate; assay type: biochemical; parameters: unit not given here
From the text: as §1, §2
A comparison was made between full length (MC3) and a prodomain deletion mutant of wild-type metacaspase 3 (MC3AN) or the C/A mutant (MC3ANC/A). Activity was significant only after addition of the kosmotrope sodium citrate (Na citr., 1 M), in absence of this agent the proteins were not active.
Table 3: Activit y of full length metacaspase 3, and the prodomain deletion mutant in function of the pH, using Z-FR-AMC as substrate. “No enz” was incubated at pH8, without addition of metacaspase.

[10] = Proteolytic activity of Atmc9 against Boc-GKR-AMC at different pH; assay type: biochemical
Method: Assays were performed in 150 μl with 400 ng of purified Atmc9 and 50 μM substrate in an optimized metacaspase 9 assay buffer (50 mM MES pH 5.3, 10% (w/v) sucrose, 0.1% (w/v) 3-[(3-cholamidopropyl)dimethylammonio]-1-propanesulfonate [CHAPS], 10 mM DTT). Time-dependent release of free amido-4-methylcoumarin (AMC) was measured on a Cytofluor 4000 fluorescence microplate reader (PerSeptive Biosystems, Farmingham, Md., USA).
To further characterize Atmc9 biochemically, the purified protein and its cysteine mutant were tested for their ability to cleave the synthetic fluorogenic oligopeptide substrate t-butyloxycarbonyl-GKR-7-amido-4-methylcoumarin (Boc-GKR-AMC) at different pH.

Q: Which “cleavage by metacaspase 3” value (metacaspase 3) does the source give for “t-butyloxycarbonyl-Gly-Lys-Arg-7-amido-4-methylcoumarin (Boc-Gly-Lys-Arg-{AMC}; SMILES Cc1cc(=O)oc2cc(NC(=O)[C@H](CCCNC(=N)N)NC(=O)[C@H](CCCCN)NC(=O)CNC(=O)OC(C)(C)C)ccc12) [Boc-GKR-AMC]” here?
A: No activity was detected

Q: And the “quality as substrate for Atmc9” value (Atmc9)?
A: somewhat less good substrate

B1: N-terminally HIS6-tagged Atmc9 (bacterially produced) (protein)
chain: MSYYHHHHHHLESTSLYKKAGSTMDQQGMVKKRLAVLVGCNYPNTRNELHGCINDVLAMKETILSRFGFKQDDIEVLTDEPESKVKPTGANIKAALRRMVDKAQAGSGDILFFHYSGHGTRIPSVKSAHPFKQDEAIVPCDFNLITDVDFRELVNQLPKGTSFTMISDSCHSGGLIDKEKEQIGPSSVSSNISPAIETTNKTITSRALPFKAVLDHLSSLTGITTSDIGTHLLELFGRDAGLKFRLPAMDLMDLLETMTAREKHVDSGILMSGCQADETSADVGVGNGKAYGAFSNAIQRVLNENEGAMKNKQLVMMARDVLERLGFHQHPCLYCSDQNADATFLSQP
Q: With B1 as the molecule, how does the kcat/Km [1] read?
A: 1900 M⁻¹ s⁻¹

Q: And the Activity (%) of Atmc9 with Boc-GKR-AMC as substrate, reagent at 100 µM (Z-DEVD-cmk)?
A: 94%

Q: What about the kcat/Km [2] of the same molecule?
A: 2900 M⁻¹ s⁻¹

Q: And the Activity (%) of Atmc9 with Boc-GKR-AMC as substrate, reagent at 100 µM (Z-VAD-fmk)?
A: 87%

Q: And the Activity (%) of Atmc9 with Boc-GKR-AMC as substrate, reagent at 100 µg/ml [3]?
A: 73%

Q: What about the kcat/Km [4] of the same molecule?
A: 2900 M⁻¹ s⁻¹

Q: What about the kcat/Km [5] of the same molecule?
A: 750 M⁻¹ s⁻¹

Q: And the Activity (%) of Atmc9 with Boc-GKR-AMC as substrate, reagent at 100 µM (Z-YVAD-cmk)?
A: 100%

Q: And the Activity (%) of Atmc9 with Boc-GKR-AMC as substrate, reagent at 1 µM [6]?
A: 33%

B2: N-terminally HIS6-tagged Atmc3 (bacterially produced) (protein)
chain: MSYYHHHHHHLESTSLYKKAGSTMASRREVRCRCGRRMWVQPDARTVQCSTCHTVTQLYSLVDIARGANRIIHGFQQLLRQHQPQHHEQQQQQMMAQPPPRLLEPLPSPFGKKRAVLCGVNYKGKSYSLKGCISDAKSMRSLLVQQMGFPIDSILMLTEDEASPQRIPTKRNIRKAMRWLVEGNRARDSLVFHFSGHGSQQNDYNGDEIDGQDEALCPLDHETEGKIIDDEINRILVRPLVHGAKLHAVIDACNSGTVLDLPFICRMERNGSYEWEDHRSVRAYKGTDGGAAFCFSACDDDESSGYTPVFTGKNTGAMTYSFIKAVKTAGPAPTYGHLLNLMCSAIREAQSRLAFNGDYTSSDASAEPLLTSSEEFDVYATKFVL
Q: With B2 as the molecule, how does the “cleavage of fluorescent substrate, pH 4.5 to 9.0” value (“cleavage of fluorescent substrate” below) [7] read?
A: No activity was detected using the other substrates.

Q: And the “cleavage of fluorescent substrate” value [1]?
A: No activity was detected using the other substrates.

Q: And the “cleavage of fluorescent substrate” value [2]?
A: Only Z-FR-AMC was cut by metacaspase 3.

Q: What about the “cleavage of fluorescent substrate” value [8] of the same molecule?
A: No activity was detected using the other substrates.

Q: And the “cleavage of fluorescent substrate” value [4]?
A: No activity was detected using the other substrates.

Q: And the “cleavage of fluorescent substrate” value [5]?
A: No activity was detected using the other substrates.

Q: What about the Activity ([9]; pH 4.5, with sodium citrate (1 M)) of the same molecule?
A: 13.37

Q: What about the Activity ([9]; pH 5, with sodium citrate (1 M)) of the same molecule?
A: 8.05

Q: And the Activity ([9]; pH 5.5, with sodium citrate (1 M))?
A: 5.48

Q: And the Activity ([9]; pH 6, with sodium citrate (1 M))?
A: 5.64

Q: And the Activity ([9]; pH 6.5, with sodium citrate (1 M))?
A: 29.58

Q: What about the Activity ([9]; pH 7, with sodium citrate (1 M)) of the same molecule?
A: 36.63

Q: And the Activity ([9]; pH 7.5, with sodium citrate (1 M))?
A: 41.61

Q: And the Activity ([9]; pH 8, with sodium citrate (1 M))?
A: 26.11

Q: And the Activity ([9]; pH 8.5, with sodium citrate (1 M))?
A: 17.93

Q: What about the Activity ([9]; pH 9, with sodium citrate (1 M)) of the same molecule?
A: −2.57

B3: Atmc9: purified recombinant HIS-tagged Arabidopsis thaliana metacaspase 9, type II (protein, listed as Arabidopsis thaliana)
chain: HHHHHLESTSLYKKAGSTMDQQGMVKKRLAVLVGCNYPNTRNELHGCINDVLAMKETILSRFGFKQDDIEVLTDEPESKVKPTGANIKAALRRMVDKAQAGSGDILFFHYSGHGTRIPSVKSAHPFKQDEAIVPCDFNLITDVDFRELVNQLPKGTSFTMISDSCHSGGLIDKEKEQIGPSSVSSNISPAIETTNKTITSRALPFKAVLDHLSSLTGITTSDIGTHLLELFGRDAGLKFRLPAMDLMDLLETMTAREKHVDSGILMSGCQADETSADVGVGNGKAYGAFSNAIQRVLNENEGAMKNKQLVMMARDVLERLGFHQHPCLYCSDQNADATFLSQP
modifications: N-terminal His6 tag with linker; Atmc9
notes: purified recombinant HIS-tagged Arabidopsis thaliana metacaspase 9, type II
Q: Which results are given for B3?
A: activity at the physiological pH of the cytoplasm ([10]; pH 7.0-7.5): completely abolished; GKR-ase activity ([10]; purified protein, Boc-GKR-AMC at different pH, FIG. 7): clearly has GKR-ase activity
